Data: publication PMC9583845, “Characterization of the chicken melanocortin 5 receptor and its potential role in regulating hepatic glucolipid metabolism” (Frontiers in Physiology, 2022)
Entries after “also recorded” stand apart in the source; their conditions may differ. Where two headings read alike, the source gives them in different places.

How the values were obtained:
[1] = tested on: MC5R mRNA, primary chicken hepatocytes; experiment: MC5R mRNA in primary chicken hepatocytes, RT-qPCR; format: cell-based; conditions: 6 h
Procedure: To evaluate the effect of ACTH1-39 on chicken liver, the chicken hepatocytes were prepared and maintained as a monolayer culture. Briefly, one-month-old male chicken hepatocytes were isolated by perfusion of a liver with Ca^2+-free KRB buffer to remove blood cells, and being digested with 0.25% collagenase-I for 10 min. Hepatocytes were obtained following filtering and washing using M199 medium. Then the hepatocytes were plated in a Corning CellBIND 48-well microplate (Corning, NY, cat. no.3338) with M199 medium containing 100 U/ml penicillin and […] streptomycin (Gibco), 5 μg/ml bovine insulin (Sigma), and 5% FBS at 37°C in a 5% CO2 atmosphere. To adhere to the wall, the cells were incubated on the 48-well plate for 4 h. For quantitative real-time PCR, primary cultured chicken hepatocytes were treated with various concentrations of ACTH1-39 (or other composition) at 37°C for 6 h. The relative amount of mRNA was calculated using the comparative Ct method. Chicken β-actin gene was used as the reference gene. Amplification of specific transcripts was confirmed by analyzing the melting curve profile performed at the end of each run and by determining the size of the PCR products using agarose electrophoresis and ethidium bromide staining.

[2] = tested on: primary chicken hepatocytes; experiment: Glucose production from primary cultured chicken hepatocytes; format: cell-based; conditions: primary chicken hepatocytes; 100 nM for 30 or 60 min, or 0.1–100 nM for 60 min; gluconeogenic substrates 20 mM lactate, 2 mM pyruvate; four independent experiments; Figures 7A,B
Procedure: To evaluate the effect of ACTH1-39 on chicken liver, the chicken hepatocytes were prepared and maintained as a monolayer culture. Briefly, one-month-old male chicken hepatocytes were isolated by perfusion of a liver with Ca^2+-free KRB buffer to remove blood cells, and being digested with 0.25% collagenase-I for 10 min. Hepatocytes were obtained following filtering and washing using M199 medium. Then the hepatocytes were plated in a Corning CellBIND 48-well microplate (Corning, NY, cat. no.3338) with M199 medium containing 100 U/ml penicillin and […] streptomycin (Gibco), 5 μg/ml bovine insulin (Sigma), and 5% FBS at 37°C in a 5% CO2 atmosphere. To adhere to the wall, the cells were incubated on the 48-well plate for 4 h.
Glucose production from primary cultured chicken hepatocytes was measured as previously described ([Collins et al., 2006]). Briefly, cells were washed three times with warm phosphate-buffered saline (PBS) to remove glucose, followed by treatment with 100 nM (or different concentration gradients) chicken ATCH1-39 for 30 min or 60 min in glucose-free medium containing gluconeogenic substrates (20 mM sodium lactate and 2 mM sodium pyruvate). Glucose concentration was determined with a glucose assay kit (Applygen, Beijing, China, catalog no. E1011). Briefly, the 5 µl medium was added into 195 µl reagent and incubated for 20 min at 37°C. Absorbance in 550 nm was measured in a standard glucose solution.

[3] = tested on: intracellular cAMP / CREB; conditions: ref Herzig et al., 2001; Noriega et al., 2011; cited from earlier work
Source text: Like its mammalian counterparts, numerous putative transcription factor binding sites were found in the upstream of the MC5R transcription start site. According to reports, Foxo4 may bind to the ...

chicken MC5R = chicken MC5R (Gallus gallus, UniProt O73671); parameters: method as in 3 sources, ref Ling et al., 2004 ||| ref Dores et al., 2020 ||| ref Schioth et al., 1997; Ling et al., 2004; conditions: cited from earlier work; for EC50 values / potency at chicken MC5R compared (in words): human α-MSH vs ACTH1-24, ref Ling et al.
chicken MC5R, sequence (O73671 1-325): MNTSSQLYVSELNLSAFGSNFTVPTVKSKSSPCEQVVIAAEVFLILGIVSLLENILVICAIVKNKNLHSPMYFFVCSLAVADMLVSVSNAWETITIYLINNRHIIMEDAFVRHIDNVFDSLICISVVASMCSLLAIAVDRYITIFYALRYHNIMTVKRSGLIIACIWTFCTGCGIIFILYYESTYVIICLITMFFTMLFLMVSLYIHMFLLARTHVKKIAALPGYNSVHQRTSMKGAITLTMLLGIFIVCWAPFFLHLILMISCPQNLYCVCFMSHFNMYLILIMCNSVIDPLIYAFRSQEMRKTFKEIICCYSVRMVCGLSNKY

MC5R orthologs + MRAP1 = conditions: ref Dores et al., 2018, Barney et al., 2019, 2020, Hoglin et al., 2022; cited from earlier work
Source text: (§1) Since the R15K and I20 V substitutions in chicken and human ACTH occur in/near the KKRRP motif (Figure 2A), it might lead to different regulatory effects o ...

chicken MC5R + MRAP1 = chicken MC5R + MRAP1 (Gallus gallus, UniProt O73671); conditions: 2020, cited from earlier work; for effect of MRAP1 on cMC5R sensitivity: CHO cells, ref Thomas et al., 2018, Dores et al.
chicken MC5R + MRAP1, sequence (O73671 1-325): as above
Source text: as §1

chicken MC5R + MRAP2 = chicken MC5R + MRAP2 (Gallus gallus, UniProt O73671); parameters: method as in Thomas et al., 2018; conditions: ref Thomas et al., 2018; cited from earlier work
chicken MC5R + MRAP2, sequence (O73671 1-325): as above
chicken MC5R + MRAP2, sequence (A0A140B2F4 1-206 partner): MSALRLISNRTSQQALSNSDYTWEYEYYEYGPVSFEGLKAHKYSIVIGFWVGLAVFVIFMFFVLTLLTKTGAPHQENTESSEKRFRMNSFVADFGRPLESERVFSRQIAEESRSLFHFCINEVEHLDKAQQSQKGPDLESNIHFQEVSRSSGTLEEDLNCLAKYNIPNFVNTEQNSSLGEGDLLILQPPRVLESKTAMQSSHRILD

chicken MC2R + MRAP1 = conditions: co-expressed with MRAP1 in CHO cells; ref Barlock et al., 2014; cited from earlier work
Source text: In the chicken genome, there are five paralogous MCRs and two MRAPs ([Ling et al., 2004]; [Barlock et al., 2014]; [Zhang et al., 2017]; [Thomas et al., 2018]). In recent years, the pharmacological characterization and physiological activity of chicken MCRs (cMCRs) have been widely explored ([Scanes and Pierzchala-Koziec, 2021]). […] MC1R of dark-feathered chickens with a Glu to Lys mutation at position 92 show ...

human MC5R = conditions: ref Schioth et al., 1997; Ling et al., 2004; cited from earlier work
Source text: The luciferase reporter system was then employed to investigate the signal pathway of MC5R coupling. […] Human peptides have previously been ...

| Substance | increase in MC5R mRNA abundance ([1]; glucagon 10–100 nM, N = 4, Figure 6E) [fold] | MC5R mRNA abundance (in words) ([1]; primary chicken hepatocytes, N = 4, vs β-actin, Figures 6C-E) | glucose production (in words) [2] | intracellular cAMP accumulation and CREB activation [3] | EC50 values / potency at chicken MC5R compared (in words) (chicken MC5R; 2004) | EC50 values / potency at chicken MC5R compared (in words) (chicken MC5R; 2004, listed as ACTH1-24) | ability of hACTH1-39 vs hACTH1-24 to activate chicken MC5R (chicken MC5R; ref Schioth et al., 1997, Ling et al., 2004) | EC50 compared, hACTH1-24 vs srACTH1–24 (chicken MC5R; srACTH1–24 has R15 and I20, ref Dores et al., 2020) | effect of MRAP1 co-expression on sensitivity of MC5R orthologs (MC5R orthologs + MRAP1) | effect of MRAP1 on cMC5R sensitivity (chicken MC5R + MRAP1) | effect of MRAP1 on cMC5R sensitivity (chicken MC5R + MRAP1; listed as hACTH1–24) | increase of MC5R sensitivity to hACTH1–24 with cMRAP1 (chicken MC5R + MRAP1; KKRRP motif of hACTH1–24 necessary, ref Dores et al.) | effect of MRAP2 on cMC5R sensitivity (chicken MC5R + MRAP2) | activation of cMC2R (chicken MC2R + MRAP1) | ability of hACTH1-39 vs hACTH1-24 to activate human MC5R (human MC5R) |
| --- | --- | --- | --- | --- | --- | --- | --- | --- | --- | --- | --- | --- | --- | --- | --- |
| glucagon: chicken glucagon; induce cAMP elevation in a dose-dependent way | 3.5 | increased hepatic MC5R mRNA abundance; also recorded: enhance the expression of MC5R in cultured hepatocytes in a dose-dependent manner | induction of gluconeogenesis | enhance the intracellular cAMP accumulation and activate CREB | – | – | – | – | – | – | – | – | – | – | – |
| human ACTH1-24: shortened form of hACTH1-39 used in cited studies | – | – | – | – | equal potency for chicken MC5R | equivalent | no different | no statistical differences in the EC50 values | increase sensitivity to ACTH1-24 | improved chicken MC5R sensitivity to human ACTH1-24 | significantly increased the sensitivity of cMC5R to hACTH1–24 | ~1,000 fold | no influence on cMC5R sensitivity to human ACTH1–24 | can be activated by ACTH1-24 | no different |
